Changes are numbered by the printed parent chain. Read-outs that look alike come from different tables or passages of the source. Each block holds one binder with its values, some of them ahead of it.
Experiments:
[1] = target: T1, human CD33 expressed on cells (human, UniProt P20138 18-364); assay: flow cytometry on Molm-13 cells, fluorophore-conjugated anti-human IgG secondary antibody, MFI as fold over background (FOB)
T1 construct: endogenous CD33 of human AML cell lines and blood monocytes; also called cell-expressed CD33 (Molm-13, Mv4-11, monocytes)
Experimental: Binding of the TriNKET was detected using a fluorophore conjugated anti-human IgG secondary antibody. Cells were analyzed by flow cytometry, binding MFI to cell expressed CD33 was normalized to secondary antibody controls to obtain fold over background values.

[2] = target: T2, C domain of human CD33 (human, UniProt P20138 140-259, limits assumed); assay: SPR, Fab captured, 37C
T2 construct: recombinant C domain
Experimental: (§1) Kinetics and affinity of a series of Fab fragments of anti-CD33 antibodies with different CD33 variants (human CD33 ECD, cyno CD33 ECD, V-domain of human CD33, C-domain or human CD33 and selected CD33 SNPs) were assessed by surface plasmon resonance using Biacore 8K instrument (GE Healthcare). Anti-Fab antibody was immobilized on a CMS chip using standard amine coupling chemistry. CD33 FABs were captured on the anti-Fab chip at a density of ˜100 RU. Solutions containing different concentrations of soluble monomeric CD33 or its domains were injected over the captured FABs and control surfaces at 30 μl/min at 37° C. Surfaces were regenerated between cycles by quick injection of 10 mM glycine, pH 1.8. To obtain kinetic rate constants double-referenced data were fit to a 1:1 interaction model using Biacore 8K Evaluation software (GE Healthcare). The equilibrium binding constant KD was determined by the ratio of binding rate constants kd/kₐ.
The binding interface between the Fab fragment of each CD33 antibody to CD33 was mapped.

[3] = target: T3, cyno CD33 extracellular domain (Cynomolgus/Rhesus (cyno)); assay: SPR, Fab captured, 37C;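 further: surface plasmon resonance with Fabs captured on anti-Fab surface, soluble monomeric CD33 as analyte at several concentrations, double-referenced 1:1 model fit, KD as koff/kon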
T3 construct: soluble monomeric ECD; also called cyno CD33 ECD
Experimental: as §1
(§2) Affinity of 29 Fab fragments binding to human and cyno CD33 ECD were assayed by Biacore analysis.

[4] = target: T4, human CD33 extracellular domain (human, UniProt P20138 18-259); assay: SPR, Fab captured, 37C;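 on result: surface plasmon resonance with Fabs captured on anti-Fab surface, soluble monomeric CD33 as analyte at several concentrations, double-referenced 1:1 model fit, KD as koff/kon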
T4 construct: soluble monomeric ECD; also called human CD33 ECD; hCD33
Experimental: as §1, §2

[5] = target: T4, human CD33 extracellular domain; assay: SPR, Fab captured, 37C; remark: listed apart in the source;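 on result: surface plasmon resonance with Fabs captured on anti-Fab surface, soluble monomeric CD33 as analyte at several concentrations, double-referenced 1:1 model fit, KD as koff/kon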
Experimental: as §1, §2

[6] = target: T5, V domain of human CD33 (human, UniProt P20138 18-139, limits assumed); assay: SPR, Fab captured, 37C
T5 construct: recombinant, fully glycosylated V domain; also called Human CD33 V domain

[7] = target: T6, deglycosylated V domain of human CD33 (human, UniProt P20138 18-139, limits assumed, N-glycans removed by PNGase); assay: SPR, Fab captured, 37C
T6 construct: V domain deglycosylated by PNGase before testing; also called deglycosylated V CD33

[8] = target: T4, human CD33 extracellular domain; assay: SPR, Fab captured, 37C; remark: listed apart in the source;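 on result: surface plasmon resonance with Fabs captured on anti-Fab surface, soluble monomeric CD33 as analyte at several concentrations, double-referenced 1:1 model fit, KD as koff/kon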
Experimental: as §1, §2

[9] = target: T4, human CD33 extracellular domain; assay: SPR, Fab captured, 37C; remark: listed apart in the source
[10] = target: T5, V domain of human CD33; assay: SPR, Fab captured, 37C; remark: listed apart in the source

- binding result [1]: binds
B1: A40.I07 (bispecific antibody)
NKG2D-binding VH: QVQLQQWGAGLLKPSETLSLTCAVYGGSFSGYYWSWIRQPPGKGLEWIGEIDHSGSTNYNPSLKSRVTISVDTSKNQFSLKLSSVTAADTAVYYCARARGPWSFDPWGQGTLVTVSS
NKG2D-binding VL: DIQMTQSPSTLSASVGDRVTITCRASQSIGSWLAWYQQKPGKAPKLLIYKASSLESGVPSRFSGSGSGTEFTLTISSLQPDDFATYYCQQYHSFYTFGGGTKVEIK
CD33-binding VH: EVQLVESGGGLVQPGGSLRLSCAASGFTFGSYWMSWVRQAPGKGLEWVATIKQDGSEKSYVDSVKGRFTISRDNAKNSLYLQMNSLRAEDTAVYYCARPLNAGELDVWGQGTMVTVSS
CD33-binding VL: DIQMTQSPSTLSASVGDRVTITCRASQSISSWLAWYQQKPGKAPKLLIYEASSLESGVPSRFSGSGSGTEFTLTISSLQPDDFATYYCQQSQSYPPITFGGGTKVEIK

- binding result [1]: binds
B2: A40.I35 (bispecific antibody)
NKG2D-binding VH: B1 NKG2D-binding VH
NKG2D-binding VL: B1 NKG2D-binding VL
CD33-binding VH: QLQLQESGPGLVKPSETLSLTCTVSGGSISSTDYYWGWIRQPPGKGLEWIGSIGYSGTYYNPSLKSRVTISVDTSKNQFSLKLSSVTAADTAVYYCARETAHDVHGMDVWGQGTTVTVSS
CD33-binding VL: EIVLTQSPATLSLSPGERATLSCRASHSVYSYLAWYQQKPGQAPRLLIYDASNRATGIPARFSGSGSGTDFTLTISSLEPEDFAVYYCQQYDNLPTFGGGTKVEIK

- binding result [1]: binds
B3: F47.I07 (bispecific antibody)
NKG2D-binding VH: B1 NKG2D-binding VH
NKG2D-binding VL: B1 NKG2D-binding VL with G30S, H92D, S93T, Y95I
CD33-binding VH: B1 CD33-binding VH
CD33-binding VL: B1 CD33-binding VL

- binding result [1]: binds
B4: F47.I35 (bispecific antibody)
NKG2D-binding VH: B1 NKG2D-binding VH
NKG2D-binding VL: B1 NKG2D-binding VL with G30S, H92D, S93T, Y95I
CD33-binding VH: B2 CD33-binding VH
CD33-binding VL: B2 CD33-binding VL

- binding result [2]: no binding
- binding result [3]: no binding (tested: 100 nM)
- Kd [4]: 20.6 nM
- koff [4]: 0.0118 s⁻¹
- kon [4]: 574000 M⁻¹ s⁻¹
- Kd [5]: 20.6 nM
- koff [5]: 0.0118 s⁻¹
- kon [5]: 574000 M⁻¹ s⁻¹
- Kd [6]: 95.8 nM
- koff [6]: 0.124 s⁻¹
- kon [6]: 1.29e+06 M⁻¹ s⁻¹
- Kd [7]: 85.6 nM
- koff [7]: 0.196 s⁻¹
- kon [7]: 2.29e+06 M⁻¹ s⁻¹
- Kd [8]: 20.6 nM
- koff [8]: 0.0118 s⁻¹
- Kd [9]: 20.6 nM
- koff [9]: 0.0118 s⁻¹
- kon [9]: 574000 M⁻¹ s⁻¹
- Kd [10]: 95.8 nM
- koff [10]: 0.124 s⁻¹
- kon [10]: 1.29e+06 M⁻¹ s⁻¹
B5: ADI-10161 Fab (Fab, V domains shown)
VH: EVQLVESGGGLVQPGGSLRLSCAASGFTFSSYWMSWVRQAPGKGLEWVANINQDGSEKYYVDSVKGRFTISRDNAKNSLYLQMNSLRAEDTAVYYCAREGGDSWYHAFDIWGQGTMVTVSS
VL: DIQMTQSPSSVSASVGDRVTITCRASQGISSWLAWYQQKPGKAPKLLIYAASNLQSGVPSRFSGSGSGTDFTLTISSLQPEDFATYYCQQKLSLPLTFGGGTKVEIK
notes: Fab fragment; also called Ab16

- binding result [2]: no binding
- binding result [3]: no binding (tested: 100 nM)
- Kd [4]: 18.6 nM
- koff [4]: 0.0162 s⁻¹
- kon [4]: 874000 M⁻¹ s⁻¹
- Kd [5]: 18.6 nM
- koff [5]: 0.0162 s⁻¹
- kon [5]: 874000 M⁻¹ s⁻¹
- Kd [6]: 44.6 nM
- koff [6]: 0.41 s⁻¹
- kon [6]: 9.19e+06 M⁻¹ s⁻¹
- Kd [7]: 70.3 nM
- koff [7]: 0.116 s⁻¹
- kon [7]: 1.65e+06 M⁻¹ s⁻¹
- Kd [8]: 18.6 nM
- koff [8]: 0.0162 s⁻¹
- Kd [9]: 18.6 nM
- koff [9]: 0.0162 s⁻¹
- kon [9]: 874000 M⁻¹ s⁻¹
- Kd [10]: 44.6 nM
- koff [10]: 0.41 s⁻¹
- kon [10]: 9.19e+06 M⁻¹ s⁻¹
B6: ADI-11839 Fab (Fab, V domains shown)
VH: QVQLVQSGAEVKKPGASVKVSCKASGYTFSNYYMHWVRQAPGQGLEWMGWINPFSGGTRYAQKFQGRVTMTRDTSTSTVYMELSSLRSEDTAVYYCARDVGSSAYYYMDVWGKGTTVTVSS
VL: B5 VL with R24E, Q27K, N53D, K91A, L92F, S93L, L94F, L96P
notes: Fab fragment; also called Ab28

From patent publication US20220380459A1 (DRAGONFLY THERAPEUTICS, published 2022)
